We go through 60 sequences from the Immune Epitope Database (IEDB).

Holding throughout (details): source organism: Influenza A virus (A/Puerto Rico/8/1934(H1N1))
For one assay, the target named is HLA-B*07:02. The assay can be described thus: IEDB peptide-MHC binding, purified MHC/competitive/radioactivity; ≥ and ≤ were set here for values at or beyond the usual limits of such assays.
The next assay deals with HLA-A*02:01. The assay is described as above.
The target in the next assay is HLA-A*11:01. Described as above.
For another assay, the target named is HLA-A*03:01. Described as above.
Another assay addresses HLA-A*31:01. The description is as above.
In assay [1] the target is HLA-A*68:01. Described as above.
The target of assay [2] is HLA-A*33:01. The assay can be described thus: IEDB peptide-MHC binding, purified MHC/competitive/radioactivity; filed as Kd, often an IC50 or EC50 that approximates it; ≥ and ≤ were set here for values at or beyond the usual limits of such assays.
The target in assay [3] is HLA-A*33:01. As to the kind of experiment: IEDB peptide-MHC binding, purified MHC/competitive/radioactivity; ≥ and ≤ were set here for values at or beyond the usual limits of such assays.
Assay [4] concerns the target HLA-A*68:01. As to the kind of experiment: IEDB peptide-MHC binding, purified MHC/competitive/radioactivity; filed as Kd, often an IC50 or EC50 that approximates it; ≥ and ≤ were set here for values at or beyond the usual limits of such assays.

Turning to TPLGAINSSL, in the assay with HLA-B*07:02, the IC50 stood at 34.9 nM.
As for FLWHVRKRV, in the assay with HLA-A*02:01, the IC50 is 204 nM.
Turning to KLESMGIYQI, the half-inhibitory concentration (IC50) with HLA-A*02:01 worked out at 434 nM.
For SPGMMMGMF, the IC50 with HLA-B*07:02 was determined as 137 nM.
Take CPKYVRSAKL: the IC50 with HLA-B*07:02 came out at 344 nM.
On to NIQFTAVGK, for which the IC50 in the assay with HLA-A*11:01 came out at 182 nM.
Turning to STDTVDTVLEK, in the assay with HLA-A*11:01, the IC50 is 90 nM.
Take WILDRLFFK: the concentration for half-maximal inhibition (IC50) in the assay with HLA-A*11:01 came to 7.6 nM.
Take SMIEAESSV: the 50% inhibitory concentration (IC50) with HLA-A*02:01 is 160 nM.
For the sequence LLTEVETPI, in the assay with HLA-A*02:01, the half-maximal inhibitory concentration (IC50) stood at 24 nM.
Regarding GTHPSSSAGLK, in the assay with HLA-A*11:01, the IC50 came out at 94 nM.
Consider SVRNGTYDYPK, for which the half-maximal inhibitory concentration (IC50) with HLA-A*11:01 came to 43 nM.
In the case of YPKLKNSYV, the half-maximal inhibitory concentration (IC50) with HLA-B*07:02 turned out to be 176 nM.
For SLPFQNIHPV, the IC50 in the assay with HLA-A*02:01 came to 96 nM.
As for NPRMFLAMI, in the assay with HLA-B*07:02, the half-maximal inhibitory concentration (IC50) came out at 10.1 nM.
Take ALKMTMASV: the half-maximal inhibitory concentration (IC50) in the assay with HLA-A*02:01 turned out to be 225 nM.
Regarding GPALSINEL, in the assay with HLA-B*07:02, the IC50 is 119 nM.
Regarding GMFNMLSTV, the IC50 in the assay with HLA-A*02:01 worked out at 28 nM.
Consider RPWVSFDQNL, for which the IC50 with HLA-B*07:02 came to 397 nM.
In the case of VPASRYLTDM, in the assay with HLA-B*07:02, the IC50 was 13.6 nM.
Regarding SPKGVEESSI, the IC50 with HLA-B*07:02 came out at 215 nM.
For TMVMELVRMIK, the IC50 worked out at 124 nM in the assay with HLA-A*03:01, 194 nM in the assay with HLA-A*11:01 and 1290 nM with HLA-A*31:01.
In the case of LPVRSWSYIV, in the assay with HLA-B*07:02, the 50% inhibitory concentration (IC50) is 207 nM.
Regarding RPCFWVELI, the 50% inhibitory concentration (IC50) with HLA-B*07:02 was found to be 67.1 nM.
As to CIYRRFKYFLK, the IC50 with HLA-A*11:01 is 231 nM.
With GPVHFRNQV, in the assay with HLA-B*07:02, the half-inhibitory concentration (IC50) turned out to be 71.4 nM.
Take CLLQSLQQI: the IC50 in the assay with HLA-A*02:01 was 159 nM.
Take FPSSSYRRPV: the IC50 with HLA-B*07:02 amounted to 20.9 nM.
As to LMDALKLSI, the IC50 in the assay with HLA-A*02:01 worked out at 40 nM.
On to KTRPILSPLTK, for which the half-inhibitory concentration (IC50) with HLA-A*11:01 came out at 120 nM.
As to GPDNGAVAVL, in the assay with HLA-B*07:02, the 50% inhibitory concentration (IC50) is 498 nM.
As for ITNKVNSVIEK, the IC50 with HLA-A*11:01 was determined as 90 nM.
On to RTLDFHDSNVK, for which the IC50 with HLA-A*03:01 was 141 nM; in the assay with HLA-A*11:01, 50 nM; in the assay with HLA-A*31:01 it was 1500 nM; with HLA-A*68:01 [1], 2290 nM. Further, in the assay with HLA-A*33:01 [2], the equilibrium dissociation constant (Kd) worked out at 6300 nM.
Consider GIHHPSNSK, for which, in the assay with HLA-A*11:01, the half-maximal inhibitory concentration (IC50) worked out at 429 nM.
Regarding SIIPSGPLK, the IC50 with HLA-A*03:01 is 14 nM; with HLA-A*31:01, 4290 nM; with HLA-A*68:01 [1] it was 108 nM.
Consider MLSTVLGVSI, for which the concentration for half-maximal inhibition (IC50) with HLA-A*02:01 is 252 nM.
Turning to LPACVYGPAV, the IC50 in the assay with HLA-B*07:02 came out at 220 nM.
As to APPKQSRMQF, the IC50 in the assay with HLA-B*07:02 was found to be 24 nM.
As to RMQFSSFTV, the concentration for half-maximal inhibition (IC50) with HLA-A*02:01 is 28 nM.
For the sequence NPALRMKWM, the half-inhibitory concentration (IC50) with HLA-B*07:02 stood at 59.5 nM.
Regarding LPRRSGAAGA, in the assay with HLA-B*07:02, the half-maximal inhibitory concentration (IC50) was found to be 76.3 nM.
In the case of FPNEVGARIL, the half-inhibitory concentration (IC50) with HLA-B*07:02 amounted to 365 nM.
Take APSPYNSRF: in the assay with HLA-B*07:02, the IC50 is 19.2 nM.
With RMNYYWTLLK, the IC50 with HLA-A*11:01 turned out to be 2.6 nM.
For LLLEVEQEI, the IC50 in the assay with HLA-A*02:01 was 213 nM.
Regarding LPSLPGHTA, in the assay with HLA-B*07:02, the IC50 was determined as 41 nM.
Regarding KMNIQFTAV, in the assay with HLA-A*02:01, the 50% inhibitory concentration (IC50) came to 150 nM.
RVLSFIKGTK: the IC50 came to 13.8 nM in the assay with HLA-A*03:01; 72 nM with HLA-A*11:01; 333 nM in the assay with HLA-A*31:01; 1320 nM in the assay with HLA-A*33:01 [3]; 471 nM with HLA-A*68:01 [1].
SLLTEVETYV: in the assay with HLA-A*02:01, the half-maximal inhibitory concentration (IC50) was 38 nM.
GIAPLQLGK: the IC50 in the assay with HLA-A*03:01 amounted to 18 nM; with HLA-A*11:01 it was 30 nM; with HLA-A*31:01, 281 nM. For the same sequence, in the assay with HLA-A*68:01 [4], the Kd is 1180 nM.
With VLLVSLGAI, the half-inhibitory concentration (IC50) with HLA-A*02:01 was determined as 290 nM.
Consider ILWILDRLFFK, for which, in the assay with HLA-A*11:01, the IC50 is 21 nM.
With GMGWLTIGI, the IC50 with HLA-A*02:01 was determined as 133 nM.
Take WMMAMKYPI: the 50% inhibitory concentration (IC50) with HLA-A*02:01 stood at 72 nM.
Regarding IPKQKVAGPL, the IC50 in the assay with HLA-B*07:02 stood at 42.4 nM.
Turning to SPYNSRFESV, the half-maximal inhibitory concentration (IC50) with HLA-B*07:02 was found to be 41.4 nM.
On to LILRGSVAHK, for which the IC50 with HLA-A*11:01 amounted to 188 nM.
For GPPCSQRSKF, the IC50 with HLA-B*07:02 was determined as 270 nM.
Take AVGKEFNKLEK: in the assay with HLA-A*11:01, the IC50 was determined as 130 nM.
NLYNIRNLHI: the 50% inhibitory concentration (IC50) with HLA-A*02:01 is 61 nM.
